Data from publication doi:10.1101/2025.02.05.636725, “DHRS7 Integrates NADP^+/NADPH Redox Sensing with Inflammatory Lipid Signalling via the Oxoeicosanoid Pathway” (bioRxiv, 2025).

Assays:
[1] = substrate: CCCCC/C=C\C/C=C\C/C=C\C=C\[C@@H](O)CCCC(=O)O; assay: cells, lysate or membranes; conditions: microsomes of overexpressing HEK293T DHRS7-KO cells, NADP+ in excess, pH 7.5, 37 °C, apparent (pseudo-first order), eGFP fusion
[2] = substrate: NC(=O)c1ccc[n+]([C@@H]2O[C@H](COP(=O)(O)OP(=O)(O)OC[C@H]3O[C@@H](n4cnc5c(N)ncnc54)[C@H](OP(=O)(O)O)[C@@H]3O)[C@@H](O)[C@H]2O)c1; assay: NADPH fluorescence, plate reader, Michaelis-Menten fit of initial velocities; type: cell-based, Homo sapiens; conditions: microsomes of overexpressing HEK293T DHRS7-KO cells, 5(S)-HETE in excess, pH 7.5, 37 °C, apparent (pseudo-first order), eGFP fusion, varied: cofactor
[3] = substrate: NC(=O)c1ccc[n+]([C@@H]2O[C@H](COP(=O)(O)OP(=O)(O)OC[C@H]3O[C@@H](n4cnc5c(N)ncnc54)[C@H](OP(=O)(O)O)[C@@H]3O)[C@@H](O)[C@H]2O)c1; assay: as above; type: cell-based, Danio rerio; conditions: microsomes of overexpressing HEK293T DHRS7-KO cells, 5(S)-HETE in excess, pH 7.5, 37 °C, apparent (pseudo-first order), eGFP fusion, varied: cofactor

Protein | Km [1] | Km [2] | Km [3]
hs DHRS7 (Homo sapiens) (protein, DHRS7-eGFP fusion (pSBtet-eGFP vector, doxycycline-induced) in microsomes of HEK293T DHRS7-knockout cells) MNWELLLWLLVLCALLLLLVQLLRFLRADGDLTLLWAEWQGRRPEWELTDMVVWVTGASSGIGEELAYQLSKLGVSLVLSARRVHELERVKRRCLENGNLKEKDILVLPLDLTDTGSHEAATKAVLQEFGRIDILVNNGGMSQRSLCMDTSLDVYRKLIELNYLGTVSLTKCVLPHMIERKQGKIVTVNSILGIISVPLSIGYCASKHALRGFFNGLRTELATYPGIIVSNICPGPVQSNIVENSLAGEVTKTIGNNGDQSHKMTTSRCVRLMLISMANDLKEVWISEQPFLLVTYLWQYMPTWAWWITNKMGKKRIENFKSGVDADSSYFKIFKTKHD | 0.78 (95% CI: [0.43, 1.13]) μM | 0.62 (95% CI: [0.39, 0.97]) μM | –
dr Dhrs7 (Danio rerio) (protein, Dhrs7-eGFP fusion (pSBtet-eGFP vector, doxycycline-induced) in microsomes of human HEK293T DHRS7-knockout cells) MDICWLCVGLAGTAVYLLVQFIRFIFADADLTLLWAARFGKTPESTFRGKVVWITGASSGIGEELSLQLAAIGARLVLSARRENELERVKRLCLERSSLKAEDILVLPLDLMDRASHPEKTTAALEHFGEIDVLINNGGRSQRALCVDADVDVYQALMELNYLGTVSITKQVLPHMIQRGTGIIATVSSVAGFVGVPLATGYAASKHALQGFFNSLRTELSDCPNILISNICPGPVISSIVQNAFTEELGKPVATAGDQTHKMSTERCVHLTLVGLANRVKEMWIAEQPFLLFCYVWQYTPTLAWYLTNVLGKKRVQNFKAGVDADAAYFSKPKAKTS | 1.4 (95% CI: [1.1, 1.7]) μM | – | 0.63 (95% CI: [0.24, 1.03]) μM
